Measurements: the nanobody polyreactivity screen of Harvey et al. (2022)

experiment: yeast display, Sf9 membrane polyspecificity reagent, FACS + sequencing; frameworks hold sequencing errors
Method in brief: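 Nanobodies from a synthetic yeast display library (Saccharomyces cerevisiae BJ5465), induced 36–48 hours with galactose, were stained 1 hour at 4 °C with 10% biotinylated, detergent-solubilized Sf9 membrane reagent, enriched on streptavidin microbeads, then FACS-sorted. Anti-HA (expression) and streptavidin (reagent binding) fluorescence set low and high (top ~1%) gates. Polyreactivity labels come from the gate of origin. Genes were colony-PCR amplified, MiSeq 2 × 250 sequenced and filtered by CDR length.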

Sequence	polyreactivity (PSR sort gate)
QVQLVESGGGLVQAGGSLRLSCAASGSTFGRYVMGWYRQAPGKDRELVAAISKNAGSTYYADSVKGRFTISRDNAKNTVYLQMNSLKPEDTAVYYCAADWRTKGYDSLGQGTQVTVSS	high polyreactivity
QVQLVESGGGLVQAGGSLRLSCAASGSTFGSNAMGWYRPAPGKERELVAAITYSGGRTYYADSVKGRFTISRDNAKNTVYLQMNSLKPEDTAVYYCAATFGFFYYQYDYWGQGTQVTVSS	low polyreactivity
QVQLVESGGGLVQAGGSLRLSCAASGSTFGSYAMGWYRQAAGKERELVAGNSWSGGRTYYADSVKGRFTISRDNAKNTVYLQMNSLKPEDTAVYYCARDTGYYYARYNYWGQGTQVTVSS	low polyreactivity
QVQLVESGGGLVQAGGSLRLSCAASGSTFGSYAMGWYRQAPGKERELVAAITASGGSTYYADSVKGRFTISRDNAKNTGYLQMNSLKPEDTAVYYCATRWFAFPWDEYNYWGQGTQVTVSS	low polyreactivity
QVQLVESGGGLVQAGGSLRLSCAASGSTFGSYAMGWYRQAPGKERELVADISSRGASTYYADSVKGRFTISRDNAKNTVYFQMNSLKPEDTAVYYCARDVYIWYGYGYFPEYEYWGQGTQVTVSS	low polyreactivity
QVQLVESGGGLVQAGGSLRLSCAASGSTFGSYAMGWYRQAPGKERELVAGISWSGGRTYYADSVKGRFTISRDNAKNTVYLQMNSLKPEDTAVYYRARDTGYYYARYNYWGQGTQVTVSS	low polyreactivity
QVQLVESGGGLVQAGGSLRLSCAASGSTFGSYAMGWYRQAPGKERELVAVITGGGDTNYADSVKGRFTISRDNAKNTVYLQMNSLKPEDTAVYYCAAEGSFYRYHVGSDYWGQGTQLTVSS	low polyreactivity
QVQLVESGGGLVQAGGSLRLSCAASGSTFGSYGMGGYRQAPGKERELVAGITSSGSTYYADSVKGRFTISRDNAKNTVYLQMNSLKPDDTAVYYCNARSGIDWYYDNDYWGQGTQVTVSS	low polyreactivity
QVQLVESGGGLVQAGGSLRLSCAASGSTFGSYGMGWYRQSPGKERELVAGITSAGSTYYADSVKGRFTISRDNAKNTVYLQMNSLKPEDTAVYYCNARSGIVWYYDNDYWGQGTQVTVSS	low polyreactivity
QVQLVESGGGLVQAGGSLRLSCAASGSTFGTYAMGWYRQAPGKERELVAAISNSGGSTYYADSVKGRFTISRDNAKNTVYLQMNSLKPEDTAVYYCNTDGLVRNGPFYSWGQGTQVTVSS	low polyreactivity
QVQLVESGGGLVQAGGSLRLSCAASGSTFGTYGMGWSRQAPGKERESVADITSGGSTYYADSVKGRFTISRDNAKNTVYLQMNSLKPEDTAVYSCAASWFVWSTAVPYDYWGQGTQVTVSS	low polyreactivity
QVQLVESGGGLVQAGGSLRLSCAASGSTFGVNDMGWYRQAPWKERELVAAISRGAITNYADSVKGRFTISRDNAKNTVYLQMNSLKPEDTAVYYCAAGFVTYYVPQYKEYGYDYWGQGTQVTVSS	low polyreactivity
QVQLVESGGGLVQAGGSLRLSCAASGSTFGVYAMGWYRPAPGKERELVAAIRWSGGGTYYADSVKGRFTISRDNAKNTVYLQMNSLKPEDTAVYYCNTDILSIYAEPYYFTDVDYWGQGTQVTVSS	low polyreactivity
QVQLVESGGGLVQAGGSLRLSCAASGSTFGVYAMGWYRQAPGKERELVASITSGTSTYADSVKGRFTISRDNAKNTVYLQMNSLKPEDTAVYYCAAEYLYFNLGYDYWGQGTQVTVSS	low polyreactivity
QVQLVESGGGLVQAGGSLRLSCAASGSTFGWYAMGWYRQAPGIERELVATITSDSSTYYADSVKGRFTISRDNAKNTVYLQMNSLKPQDTAVYYCAATNYWIEYAPGYGLYSVEDDYWGQGTQVTVSS	low polyreactivity
QVQLVESGGGLVQAGGSLRLSCAASGSTFGWYAMGWYRQAPGKERELVAAINSSGDRTYYADSVKGRFTISRDNAKINVYLQMNSLKPEDTAVYYCAATYWARNWRYDYWGQGTQVTVSS	high polyreactivity
QVQLVESGGGLVQAGGSLRLSCAASGSTFGWYAMGWYRQAPGKERELVAAIRRTGSTYYADSVKGRFTISRDNAKNTVYLQMNSLKPEDTAVYYCNAKYPLYLTGYDYWGQGTQVTVSS	low polyreactivity
